Measured values published in patent US9688764B2, “Methods of treating breast cancer by administering anti-human prolactin receptor (PRLR) antibodies” (REGENERON PHARMACEUTICALS, INC., priority 2013, dated 2017).

T1: PRLR-expressing cells (T47D) (Homo sapiens, UniProt P16471)
T1 construct: a native PRLR expressing cell line (T47D); endogenous in cells; host or cells: T47D
T1 sequence (P16471 25-622): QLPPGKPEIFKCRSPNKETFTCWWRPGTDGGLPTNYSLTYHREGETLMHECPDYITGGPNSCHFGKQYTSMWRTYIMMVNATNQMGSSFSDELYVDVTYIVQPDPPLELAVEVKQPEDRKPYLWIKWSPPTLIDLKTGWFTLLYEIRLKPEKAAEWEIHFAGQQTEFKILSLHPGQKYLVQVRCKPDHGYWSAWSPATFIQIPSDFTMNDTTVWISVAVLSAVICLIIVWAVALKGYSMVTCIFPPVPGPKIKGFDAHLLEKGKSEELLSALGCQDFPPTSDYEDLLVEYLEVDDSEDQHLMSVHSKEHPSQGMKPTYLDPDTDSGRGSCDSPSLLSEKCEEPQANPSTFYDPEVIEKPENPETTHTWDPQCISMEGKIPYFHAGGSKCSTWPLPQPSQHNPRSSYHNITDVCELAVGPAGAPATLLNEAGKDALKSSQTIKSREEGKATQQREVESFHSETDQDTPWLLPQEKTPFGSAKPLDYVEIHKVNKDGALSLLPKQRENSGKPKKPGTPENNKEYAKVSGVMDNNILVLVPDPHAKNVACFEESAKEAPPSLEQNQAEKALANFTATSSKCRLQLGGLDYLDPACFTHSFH

B1: H1H6953N: human IgG1 Fc form of H1M6953N; anti-PRLR; HCVR/LCVR SEQ ID NOs 274/282 (antibody, V domains shown)
VH: EVQLLESGGGLVQPGGTLRLSCAASGFTFSAYAMSWVRQAPGKGLEWVSSINVRAGDTYYADSVKGRFTISRDNSKNTLFLLMNSLRAEDTAAYYCAKARYSSNWGFDFWGQGTLVTVSS
VL: DIVMTQSPDSLTVSLGARTTINCQSSQTILHSSNNHNYLAWYQQKPGLPPKLLIYWSSTRESGVPDRFSGSGSGTDFTLTISSLQAEDVAIYYCQQYSNTPYTFGQGTKLEIN
modifications: human IgG1 Fc
B2: H1H6804P: anti-PRLR antibody, human IgG1 Fc; HCVR/LCVR SEQ ID NOs 242/250 (antibody, V domains shown)
VH: QVTLKESGPVLVKPTQTLSLTCTVSGFSLSDAGMGVSWIRQPPGKALEWLAHIFSNDGKSYSTSLKSRLTISKDTSKRQVVLTMTNMDPVDTATYYCARIRTGTYSLYLDYWGQGTLVTVSS
VL: DIQMTQSPSSLSASVGDRVTITCRASQSINSYLNWYQQKPGKAPKLLLYFASSLQSGVPSRFSGSGSGTDFTLTISSLQPEDFASYYCQESYSTPWTFGQGTKVEIK
modifications: human IgG1 Fc

Tests used:
[1] = target: T1, PRLR-expressing cells (T47D); experiment: Antibody binding and internalization by PRLR-expressing cells (imaging); assay type: cell-based; details: [mAb] (0.67 nM); for % Internalization relative to Control I: alexa488 intensity in intracellular vesicles, 1 h at 37° C.; for % Total Binding relative to Control I: whole cell alexa488 intensity at 37° C.
[2] = system: HEK293/hPRLR/STAT5-Luc cells (human PRLR); experiment: STAT5-Luc luciferase reporter assay, blocking of PRL-mediated receptor activation; assay type: cell-based; details: for IC50: 5 nM constant PRL, 6 hr at 37° C.; for Percent Blocking at 100 nM Antibody: 5 nM PRL
Summary of the method: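 Engineered HEK293 line stably carrying human PRLR and a STAT5-dependent luciferase reporter; antibodies (100 nM to 24 pM) incubated 6 hr at 37° C with 5 nM constant PRL, luminescence read. IC50 from four-parameter fit of 8-point curves; percent blocking at highest antibody dose; agonism without ligand also tested.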

HEK293/mfPRLR = experiment: FACS cell surface binding; set-up: species or system macaca fascicularis
HEK293/mfPRLR, sequence (as listed by the source): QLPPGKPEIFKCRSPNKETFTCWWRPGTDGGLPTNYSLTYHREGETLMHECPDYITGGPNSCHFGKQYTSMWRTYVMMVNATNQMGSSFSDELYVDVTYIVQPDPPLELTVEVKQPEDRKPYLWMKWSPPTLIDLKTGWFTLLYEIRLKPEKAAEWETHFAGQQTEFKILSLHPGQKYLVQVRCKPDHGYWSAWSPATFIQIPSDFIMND
Summary of the method: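 HEK293 lines stably expressing HA-tagged human, cynomolgus or mouse PRLR, native-expressing T47D and parental HEK293 tested by flow cytometry. Cells (1×10^5) stained with primary antibody 30 min on ice, then PE anti-human secondary; MFI expressed as fold over isotype control.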

Molecule	% Internalization relative to Control I [1] [%]	% Total Binding relative to Control I [1] [%]	IC50 [2] [nM]	Percent Blocking at 100 nM Antibody [2] [%]	FACS Cell Binding (Fold Above Background) (HEK293/mfPRLR)
B1	153.9	164.2	0.105	100	29
B2	138.9	149.6	7.89	100	29
